Data from paper PMC8419023.

Target: FITC-Skp2^77−86 peptide (human) (UniProt Q13309)
Assay: fluorescence polarisation

Chain of FITC-Skp2^77−86 peptide (human) (Q13309 whole entry, looked up, tested part not stated): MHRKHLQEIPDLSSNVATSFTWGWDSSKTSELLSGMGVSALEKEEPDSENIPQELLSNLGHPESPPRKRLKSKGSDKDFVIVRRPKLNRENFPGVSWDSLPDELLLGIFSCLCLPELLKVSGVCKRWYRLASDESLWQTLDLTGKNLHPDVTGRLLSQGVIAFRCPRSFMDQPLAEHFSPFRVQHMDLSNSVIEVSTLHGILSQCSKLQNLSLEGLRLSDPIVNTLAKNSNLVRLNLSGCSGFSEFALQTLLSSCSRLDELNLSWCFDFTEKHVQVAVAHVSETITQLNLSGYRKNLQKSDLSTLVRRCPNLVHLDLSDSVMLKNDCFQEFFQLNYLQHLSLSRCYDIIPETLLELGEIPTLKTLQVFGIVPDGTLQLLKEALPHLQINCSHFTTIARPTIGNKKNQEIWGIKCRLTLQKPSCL

## CDK2-cyclin A M210A/I213A (from UniProt P24941 1-298; P20248 173-432) (complex)
  fold reduction of binding affinity against wild type: 5 fold
